# Test results published in patent publication US20110189284A1, “Peptide Fibres” (UNIVERSITY OF BRISTOL, priority 2009, published 2011).
# T1: hSAFAAQ p2
# T1 construct: Second peptide of the control pair hSAFAAQ
# T1 peptide: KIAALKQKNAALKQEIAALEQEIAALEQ
# T2: hSAFQQQ p2
# T2 construct: Second peptide of the hSAFQQQ pair; also called peptide f)
# T2 peptide: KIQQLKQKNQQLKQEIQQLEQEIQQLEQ
# T3: hSAFAAA p2
# T3 construct: Second peptide of the hSAFAAA pair; also called peptide b)
# T3 peptide: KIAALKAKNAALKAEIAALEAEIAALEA
# B1: hSAFAAQ p1 (peptide)
# peptide: KIAALKQKIAALKQEIAALEQENAALEQ
# B2: hSAFQQQ p1 (peptide)
# peptide: KIQQLKQKIQQLKQEIQQLEQENQQLEQ
# notes: First peptide of the hSAFQQQ pair; also called peptide e)
# B3: hSAFAAA p1 (peptide)
# peptide: KIAALKAKIAALKAEIAALEAENAALEA
# notes: First peptide of the hSAFAAA pair; many copies assemble with p2 into a staggered heterodimer coiled-coil fibril; also called peptide a)
# What was measured:
# [1] = tested on: PC12 cells; assay: Alamar Blue cell-proliferation assay; type: cell-based, rat; conditions: cells on collagen; peptide 0.5-2.5 mM total; 72 hours
# Procedure: PC12 cells were exposed to different concentrations of hSAFAAA-W peptides (from 0.5 mM to 2.5 mM). Results are expressed as percentage of fluorescence from cells incubated with hSAFAAA-W versus no-peptide controls (100%). Mean+/−s.d. mean for n=3 experiments. […] Staurosporine was used to establish definite cell death.
# Rat adrenal pheochromocytoma (PC12) cells and the subclone Neuroscreen-1 (NS-1) cells (ThermoFisher Scientific Cellomics) were used. Cells were maintained at 37° C., 5% CO2 in cell-culture medium comprising: Dulbecco's Modified Eagle Media (DMEM, Invitrogen) supplemented with 10% (v/v) horse serum (Sigma), 5% (v/v), fetal bovine serum (Sigma), 1% (v/v) penicillin/streptomycin solution (Sigma), and 2 mM L-glutamine (Invitrogen). […] The fluorescence (excitation, 560 nm; emission, 590 nm) of 100 μl samples was measured. The ratio of the fluorescence intensities to that for a no-peptide control wells was taken as a measure of cell proliferation. […] Cell morphology was followed up using Leica Microsystem Wetzlar GmbH (090-135.001) and images recorded using Canon PowerShot S70 7.1 megapixels. […]
# [2] = Particle-tracking microrheology (PTM) of gel strength versus temperature; type: physicochemical; conditions: as a function of temperature
# Procedure: Gel strength was probed using particle-tracking microrheology (PTM), in order to detect any difference between the behaviour of the material at the bulk and micro scales. PTM is a non-invasive technique for measuring local viscoelasticity in complex fluids (Cicuta & Donald, 2007). PTM directly observes the motion of embedded probe particles via optical microscopy. The mean square displacement (MSD) of the particles is calculated and related to the viscoelastic modulus of the sample using a Generalised Stokes-Einstein Relation (Mason, 2000; Hasnain & Donald, 2006). […] The spatial information for individual probe particles can be used to quantify the degree of heterogeneity in the system (Houghton et al., 2008).
# Experiments were carried out using a Zeiss LSM 510 confocal microscope operated in bright-field mode with a 50× objective. […] Videos were captured in uncompressed avi format at 640×480 resolution and analysed using custom-written Matlab scripts. Viscoelastic moduli were calculated by taking Laplace Transform of the MSD and using GSER. […]
# To confirm and quantify the gel strengths, the storage (G′) and loss (G″) moduli were recorded as a function of temperature using both microrheology (FIG. 3) and bulk oscillatory rheology, FIG. 4a. […]
# [3] = biological target: T1, hSAFAAQ p2; assay: summary of microscopy of the mixed peptides
# [4] = biological target: T2, hSAFQQQ p2; assay: complementary peptides mixed on ice at 1 mM each; vial inversion gel test
# Procedure: (§1) Complementary hSAF peptides were mixed on ice, and either allowed to assemble at this temperature for 30 minutes, or removed after 5 minutes and incubated for 25 minutes at 20° C. After these times, to test for gel formation, sample vials were inverted and incubated for a further 30 minutes without changing the temperature (FIG. 2). Through this simple test, hSAFAAA and hSAFQQQ both formed self-supporting gels. hSAFQQQ formed a gel at low temperature, which melted on warming; whereas, the hSAFAAA appeared to form a weak gel at low temperature that strengthened on warming.
# [5] = biological target: T3, hSAFAAA p2; assay: as above
# Procedure: as §1
molecule,measurement,setting,value
CN[C@@H]1C[C@H]2O[C@@](C)([C@@H]1OC)n1c3ccccc3c3c4c(c5c6ccccc6n2c5c31)C(=O)NC4 [staurosporine],cell proliferation / death versus no-peptide controls,[1],died
KIAALKAKNAALKAEIAALEAEIAALEA [hSAFAAA p2],gel state by PTM,[2],formed a weak gel detectable by PTM
B1,binding result,[3],binds
B2,binding result,[4],binds
B3,binding result,[5],binds
